Assay [1] has as its target T1, recombinant human EGFR extracellular domain with 6xHis (human, UniProt P00533 25-645).
T1 construct: In-house produced; also called 6xHis EGFR ECD; soluble human EGFR ECD; not shown: 6xHis tag
As to the kind of experiment: SPR competition, competitor Ab-3. In short, it runs like this:
(§1)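 First, EGFR ECD-His was captured on anti-His-coated flow cells. Second, maximal binding of the anti-EGFR mAb (40 μg/ml) was recorded. Third, competitor antibody was bound, then the same mAb was reinjected immediately. Ru max before vs after gave inhibition.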

For assay [2], the target named is T1, recombinant human EGFR extracellular …. As to the kind of experiment: SPR competition, competitor Ab-1. In short, it runs like this: as §1
For assay [3] the target is unchanged. As to the kind of experiment: SPR competition, competitor 1347. The gist of the method: as §1
The target is the same in assay [4]. Put plainly: SPR competition, competitor 1344. The gist of the method: as §1
The target is the same in assay [5]. Put plainly: SPR competition, competitor Ab-11. The gist of the method:
as §1

The target is the same in assay [6]. Put plainly: SPR competition, competitor 1208. The gist of the method:
as §1

The target is the same in assay [7]. Put plainly: SPR competition, competitor ICR10. In short, it runs like this: as §1
Assay [8] has the same target. As to the kind of experiment: SPR competition, competitor 992 corr. In short, it runs like this: as §1
The target is the same in assay [9]. Put plainly: SPR competition, competitor 1260. In short, it runs like this: as §1
Assay [10] has the same target. As to the kind of experiment: SPR competition, competitor Vectibix. The gist of the method:
as §1

Assay [11] has the same target. Put plainly: SPR competition, competitor 1254. The gist of the method: as §1
Assay [12] shares this target. Put plainly: SPR competition, competitor 1277. In short, it runs like this:
as §1

For assay [13] the target is unchanged. Put plainly: SPR competition, competitor Vectibix. In short, it runs like this:
as §1
This is another data set of the same source.

Assay [14] shares this target. As to the kind of experiment: SPR competition, competitor 1284. The gist of the method: as §1
The target is the same in assay [15]. Put plainly: SPR competition, competitor 1257. The gist of the method:
as §1

Assay [16] has the same target. Put plainly: SPR competition, competitor 1261. In short, it runs like this:
as §1

Assay [17] has the same target. Put plainly: SPR competition, competitor Ab-10. The gist of the method: as §1
Assay [18] has the same target. Put plainly: SPR competition, competitor 1024. The gist of the method:
as §1

For assay [19] the target is unchanged. Put plainly: SPR competition, competitor 1320. The gist of the method: as §1
For assay [20] the target is unchanged. Put plainly: SPR competition, competitor Ab-5. In short, it runs like this: as §1
The target is the same in assay [21]. As to the kind of experiment: SPR competition, competitor Erbitux. The gist of the method:
as §1

Assay [22] shares this target. As to the kind of experiment: SPR competition, competitor Erbitux. The gist of the method: as §1
The source holds these as a separate data set.

The target is the same in assay [23]. Put plainly: SPR competition, competitor 1030corr. The gist of the method:
as §1

This note sets out measurements from US20110135636A1 (SYMPHOGEN A S, published 2011).

B1: antibody 1347 (antibody, human IgG1, kappa, V domains shown)
VH: QVQLKESGPGLVAPSQSLSITCTVSGFSLTGHGVNWVRQPPGKGLEWLGMIWGDGSTDYNSTLKSRLSISKDNSKSQVFLKMNSLQTDDTARYYCARGYGYLYYFDYWGQGTTLTVSS
VL: ENVLTQSPAIMSASPGEKVTMTCRASSSVSSSYLHWYQQKSGASPKLWIYSTSNLASGVPARFSGSGSGTSYSLTVNSVETEDAATYYCHQYSGFPFTFGSGTKLELKR
notes: Chimeric IgG1 kappa
By % inhibition is commonly meant the relative decrease from the control value, in per cent. Take B1: the “% inhibition” value in assay [1] was 11%; in [2], -3%; in assay [3] it was 70%; in [4], 38%; in [5] it was 86%; in assay [6], 0%. Besides, the “% inhibition” value in [7] was 17%; in assay [8], 7%; in assay [9], 41%; in [10] it was -5%; in assay [11], 0%; in [12], 6%. The “% inhibition” value was -6% in assay [13]; 61% in [14]; 19% in assay [15]; -23% in assay [16]; -1% in assay [17]; 4% in assay [18]. In addition, the “% inhibition” value in [19] is 2%; in assay [20], -1%; in assay [21], -4%; in [22], -4%; in assay [23], -2%.

B2: antibody 1320 (antibody, human IgG1, kappa, V domains shown)
VH: QVQLQQPGAELVKPGASMKLSCKASGYTFTNYWMHWVKQRPGQGLEWIGEINPSNGRTNYNEKFKSKATLTVDKSSSTAYMQLSSLTSEDSGVYYCAKGGNYYDYDWDYWGQGTTLTVSS
VL: DIQMTQTTSSLSASLGDRVTISCSASQDISNYLNWYQQKPDGTVKLLIYHTSTLHSGVPSRFSGSGSGTDYSLTISNLEPEDIATYYCQQYSKLPWTFGGGTKLEIKR
notes: Chimeric IgG1 kappa
For the molecule B2, the “% inhibition” value in assay [1] is 2%; in [2], 3%; in assay [3], 5%; in assay [4], 2%; in assay [5] it was -6%; in assay [6] it was -3%. For the same molecule, the “% inhibition” value in assay [7] was -3%; in assay [8], -27%; in [9] it was -4%; in [10], 14%; in assay [11], 3%; in [12], 0%. Moreover, the “% inhibition” value was 6% in assay [13]; 5% in assay [14]; 2% in assay [15]; 4% in assay [16]; -2% in [17]; 93% in assay [18]. Moreover, the “% inhibition” value in assay [19] was 97%; in assay [20], -3%; in assay [21], 2%; in assay [22], 2%; in assay [23], 0%.
